Values joined by “and” are separate entries in the source; they are usually repeats but may differ in a detail not shown here. Equal values may be shown once.

By EC50 (read off the curve) is commonly meant the midpoint of the concentration-response curve. One may read the EC50 as the concentration giving half of the maximal effect. What is called Kd is a measure of binding affinity in units of concentration. Usually koff stands for the first-order rate constant of dissociation. As usually defined, the kon is the second-order rate constant of association.

For assay [1], the target named is T1, human OX40 expressed on cells (human, UniProt P43489 29-277).
T1 construct: also called CD134; TNFRSF4
T1 sequence: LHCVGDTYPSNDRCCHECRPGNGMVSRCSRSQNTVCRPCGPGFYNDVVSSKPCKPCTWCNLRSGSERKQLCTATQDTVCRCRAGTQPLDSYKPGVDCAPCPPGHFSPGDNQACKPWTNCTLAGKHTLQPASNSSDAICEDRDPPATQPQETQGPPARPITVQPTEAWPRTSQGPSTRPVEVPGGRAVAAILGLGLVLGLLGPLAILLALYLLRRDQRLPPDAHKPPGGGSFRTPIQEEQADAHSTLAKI
As to the kind of experiment: flow cytometry, OX40-transfected HEK293F cells, gMFI (PE). As for the experimental part:
Transfected cells were seeded in 96-well plates (30,000 cells/well; ThermoFisher, cat. no. 163320) for sequential incubations, with washing steps in between using fluorescence-activated cell sorting (FACS) buffer 1 (phosphate buffered saline [PBS; Lonza, cat. no. BE17-517Q] supplemented with 0.1% bovine serum albumin [BSA; Roche, cat. no. 10735086001] and 0.02% sodium azide [NaN₃; Bio-World, cat. no. 41920044-3]) supplemented with 2 mM ethylenediaminetetraacetic acid (EDTA; Sigma-Aldrich, cat. no. 03690). […] Cells were then washed using EDTA-supplemented FACS buffer 1, resuspended in a 30 μL solution of viability marker ToPro-3 (Invitrogen, cat. no. T3605, diluted 1:10,000) in EDTA-supplemented FACS buffer 1, and subsequently analyzed on an iQue® 3 flow cytometer (Satorius). Data were analyzed using FlowJo software and were visualized using GraphPad Prism.
For orientation: In flow cytometry, cells or beads pass a laser one at a time.

The target of assay [2] is T1, human OX40 expressed on cells. Kind of assay: flow cytometry, activated human CD4+ and CD8+ T cells, 2 µg/mL sOX40L. The procedure: (§1) Stimulated PBMCs were pelleted, resuspended in FACS buffer 2 (DPBS with 2% heat-inactivated FBS [Sigma-Aldrich, cat. no. F7524] and 2 mM EDTA [Sigma-Aldrich, cat. no. 03690]), and seeded (100,000 cells/well) in round-bottom 96-well plates (VWR International GmbH, cat. no. 734-197). […] Next, cells were washed twice in FACS buffer, and incubated with 30 μL of the antibody panel described in Table 11 diluted in FACS buffer 2 containing 1:1,500 Fixable Viability Stain eFluor 780 at 4° C. for 20 min, protected from light. The cells were subsequently washed twice with 120-150 μL FACS buffer 2 and measured on a BD FACSCelesta flow cytometer using a BD High Throughput sampler and subsequent analysis was done using FlowJo software.

Assay [3] has the same target. As to the kind of experiment: flow cytometry, activated human CD8+ T cells, with 2 µg/mL sOX40L, n=3. As for the experimental part: as §1
Assay [4] concerns the target T2, mouse OX40 expressed on ExpiCHO-S cells (mouse, UniProt P47741 20-272).
T2 construct: full-length entry; also called OX40mm; wild-type mouse OX40
T2 sequence: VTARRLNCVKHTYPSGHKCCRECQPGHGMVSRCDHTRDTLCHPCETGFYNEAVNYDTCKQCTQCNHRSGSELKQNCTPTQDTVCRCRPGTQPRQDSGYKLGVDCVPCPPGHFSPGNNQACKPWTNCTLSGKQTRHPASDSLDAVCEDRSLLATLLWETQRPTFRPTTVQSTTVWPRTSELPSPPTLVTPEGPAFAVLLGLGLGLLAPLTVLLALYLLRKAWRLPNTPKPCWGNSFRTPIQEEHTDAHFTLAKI
Kind of assay: flow cytometry, transfected ExpiCHO-S cells, gMFI (PE).

Assay [5] deals with T3, human FcγRIa expressed on cells (human, UniProt P12314 16-374).
T3 construct: whole, on cells; also called FcγR1a; CD64
Kind of assay: flow cytometry, FcγRIa-transfected ExpiCHO-S cells, gMFI (PE). As for the experimental part:
Data were analyzed using FlowJo software and were visualized using GraphPad Prism.

Assay [6] addresses T4, recombinant cynomolgus monkey OX40 (Acro Biosystems, cat. no. OX0-C5220) (cynomolgus monkey (Macaca fascicularis), UniProt P43489 29-214 (human entry)).
T4 construct: bought protein; also called Cyno OX40
T4 chain: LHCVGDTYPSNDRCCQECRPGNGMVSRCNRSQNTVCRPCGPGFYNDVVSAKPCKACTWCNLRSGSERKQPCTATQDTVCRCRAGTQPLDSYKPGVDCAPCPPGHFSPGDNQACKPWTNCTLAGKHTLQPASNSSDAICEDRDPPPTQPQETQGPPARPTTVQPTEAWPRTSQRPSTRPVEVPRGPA
As to the kind of experiment: BLI, Ab on AHC sensor, OX40 analyte; * binding observed, less reliable fit. As for the experimental part: Experiments were carried out while shaking at 1,000 RPM at 30° C. […] Next, AHC sensors were loaded with antibody (1 μg/mL in Sample Diluent) for 600 s. After a baseline measurement in sample diluent (100 s), the association (200 s) and dissociation (1,000 s) of human OX40 (Acro Biosystems, cat. no. OX0-H5224), and cynomolgus monkey OX40 (Acro Biosystems, cat. no. OX0-C5220) was determined using a concentration range of 0.78 to 800 nM with 2-fold dilution steps.
The theoretical molecular masses of the antigens based on the amino acid sequences were used for calculations. For each antibody, a reference sensor was used which was incubated with Sample Diluent instead of antigen. AHC sensors were regenerated by exposure to 10 mM glycine buffer pH 1.7 for 5 s, followed by neutralization in Sample Diluent for 5 s; both steps were repeated twice. Subsequently sensors were loaded again with antibody for the next cycle of kinetic measurements.
Data were acquired using Data Acquisition Software v12.0 (Sartorius) and analyzed with Data Analysis Software v12.0 (Sartorius). Data traces were corrected per antibody by subtraction of the reference sensor. The Y-axis was aligned to the last 10 s of the baseline and Interstep Correction alignment to dissociation as well as Savitzky-Golay filtering were applied. Data traces with a response <0.05 nm were excluded from analysis. […] The data was fitted with the 1:1 model using a window of interest for the association of 200 s and dissociation times set at 50 s, 200 s and 1,000 s. The dissociation time was chosen based upon R² value, visual inspection of the curve and at least 5% signal decay during the dissociation step.

T3 sequence (P12314 16-374): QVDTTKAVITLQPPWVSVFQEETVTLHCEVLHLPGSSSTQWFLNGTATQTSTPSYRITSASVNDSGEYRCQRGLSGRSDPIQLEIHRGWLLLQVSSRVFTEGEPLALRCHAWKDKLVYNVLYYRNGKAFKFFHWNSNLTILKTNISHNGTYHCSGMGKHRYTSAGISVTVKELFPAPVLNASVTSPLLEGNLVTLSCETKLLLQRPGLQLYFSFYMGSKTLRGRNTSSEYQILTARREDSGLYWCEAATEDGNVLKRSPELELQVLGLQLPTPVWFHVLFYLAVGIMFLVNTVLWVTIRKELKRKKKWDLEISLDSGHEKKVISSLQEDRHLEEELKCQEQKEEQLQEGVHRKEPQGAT

B1: IgG1-CD134-003-HC6LC2-P329R-E345R (antibody)
heavy: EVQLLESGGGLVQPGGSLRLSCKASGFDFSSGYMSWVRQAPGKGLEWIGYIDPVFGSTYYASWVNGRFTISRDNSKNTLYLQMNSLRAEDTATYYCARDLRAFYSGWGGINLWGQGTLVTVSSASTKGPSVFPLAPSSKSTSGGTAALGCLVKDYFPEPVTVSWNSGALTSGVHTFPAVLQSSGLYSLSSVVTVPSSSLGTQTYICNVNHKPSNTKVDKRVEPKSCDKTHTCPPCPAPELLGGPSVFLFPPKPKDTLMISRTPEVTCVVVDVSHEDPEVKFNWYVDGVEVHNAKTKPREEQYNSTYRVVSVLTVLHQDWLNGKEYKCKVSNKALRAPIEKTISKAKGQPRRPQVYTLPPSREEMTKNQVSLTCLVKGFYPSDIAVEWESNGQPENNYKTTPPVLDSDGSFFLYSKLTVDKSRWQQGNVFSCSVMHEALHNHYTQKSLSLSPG
light: AAVLTQSPSSLSASVGDRVTITCQSSQIVVNNNFLSWYQQKPGKAPKLLIYDASNLASGVPDRFSGSGSGTDFTFTISSLQPEDIATYYCLGGYDDDAENAFGGGTKVEIKRTVAAPSVFIFPPSDEQLKSGTASVVCLLNNFYPREAKVQWKVDNALQSGNSQESVTEQDSKDSTYSLSSTLTLSKADYEKHKVYACEVTHQGLSSPVTKSFNRGEC
notes: humanized; human IgG1 with P329R and E345R (Eu numbering), kappa; also called IgG1-CD134-003-HC6LC2-RR
Take B1: the “EC50 (read off the curve)” value in assay [1] was about 0.05 µg/mL. Also, in assay [2], the “fold change of EC50 in the presence of sOX40L against its absence” value was about 3 fold. For the same molecule, the EC50 in assay [3] was 0.038 µg/mL and 0.254 nM. Besides, the binding result in assay [4] was “no binding (tested: 50 µg/mL)”.

B2: IgG1-CD134-003 (antibody)
heavy: not shown
light: AAVLTQTPSPVSAAVGGTVTIKCQSSQIVVNNNFLSWYQQKPGQPPKLLIYDASNLASGVPDRFSGSGSGTQFTLTISGVQSDDAATYYCLGGYDDDAENAFGGGTEVVVQRTVAAPSVFIFPPSDEQLKSGTASVVCLLNNFYPREAKVQWKVDNALQSGNSQESVTEQDSKDSTYSLSSTLTLSKADYEKHKVYACEVTHQGLSSPVTKSFNRGEC
notes: rabbit-human chimeric IgG1, wild-type Fc; also called parental chimeric antibody
For B2, the binding result in assay [5] was “binds”.

B3: IgG1-CD134-012 (antibody)
heavy: not shown
light: DIVMTQTPASVEAAVGGTVTIKCQASENIYSSLAWYQQKPGQPPKLLIYRTSTLASGVPSRFKGSGSGTQFTLTISDLESDDAATYYCQSYYHNSGGGYDYGFGGGTEVVAKRTVAAPSVFIFPPSDEQLKSGTASVVCLLNNFYPREAKVQWKVDNALQSGNSQESVTEQDSKDSTYSLSSTLTLSKADYEKHKVYACEVTHQGLSSPVTKSFNRGEC
notes: rabbit-human chimeric IgG1
As for B3, in assay [6], the Kd came to 180 nM, the off-rate constant (koff) turned out to be 0.018 s⁻¹ and the kon stood at 98000 M⁻¹ s⁻¹.

The values above are taken from patent US20240400703A1 (Genmab, published 2024).
